The text below walks through data of patent US20100209447A1 (TUFTS UNIVERSITY, published 2010).

This series deals with the molecule itself. The series can be described thus: Coomassie-stained gel; self-association inferred from a band of about 17 kD against a 3.5 kD monomer.

B1: C-POD, CGGG(ARKKAAKA)4 (peptide)
peptide: CGGGARKKAAKAARKKAAKAARKKAAKAARKKAAKA
notes: Synthetic peptide with a 3.5 kD monomer; also called cysteine containing POD; cysteine-POD
As for B1, the binding result is “binds”.
